Data as given in paper PMC314469, “Protein Interaction Networks by Proteome Peptide Scanning” (PLoS Biology, 2004).

T1: Myo5 SH3 (MYO5_YEAST), Q04439
T1 chain: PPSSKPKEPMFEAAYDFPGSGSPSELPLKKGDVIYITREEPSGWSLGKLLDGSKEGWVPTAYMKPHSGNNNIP


Target: T1, Myo5 SH3 (MYO5_YEAST), Q04439
Test: SPOT array

Binder	normalised SPOT signal, Boehringer light units (BLU); mean over the file's lines of this peptide
HPYMMVYPMSPPPP [YHL024W 649-662]	563
IAESLGVPWEPVDL [YGR088W 547-560]	143
IAGMLMVPESPRFL [YMR011W 241-254]	255
IAKPYVLPFFPLYA [YEL031W 24-37]	247
IARPLSVPGSPKVR [YFR015C 646-659]	383
IARSFTIPFLPKIP [YLR164W 20-33]	204
IATMYPIPAYPDLL [YJL127C 53-66]	96.9
IEEGHLDPEAPDKL [YOR301W 105-118]	84.8
IEFDLSKPFTPFQQ [YGL173C 578-591]	134
IEITHSEPAIPYRE [YNL163C 742-755]	114
IEPDFIEPDAPLAA [YGL198W 10-23]	61.4
IERVWNGPVEPSDE [YIL067C 73-86]	180
IEVPMEYPFKPPKM [YDR177W 56-69]	384
IFFKLIHPFLPILH [YIR023W 322-335]	503
IFQSLLHPELPIII [YPR169W 50-63]	240
ILSAYNSPKVPADI [YGR175C 270-283]	81.4
ILHQLGAPSIPENL [YBL004W 2280-2293]	174
ILIFLWIPDDPSKA [YJR152W 263-276]	1370
ILPVLNIPLPPQEK [YER132C 923-936]	21.6
ILQELSLPSRPVMP [YGR002C 427-440]	51.9

Binder	normalised SPOT signal, Boehringer light units (BLU); mean over the file's lines of this peptide
ILQILFEPMPPFNS [YBL037W 656-669]	200
ILTLLKMPEVPNSV [YDR395W 823-836]	172
ILVAYGLPVSPDEK [YDR127W 327-340]	167
ILVPHLDPIDPWEA [YJR111C 130-143]	166
IPLPHQPPPLPIYS [YMR182C 149-162]	53600
IPTSHAPPLPPTAP [YLR337C 317-330]	43600
IPVGYVTPKFPSLY [YPR153W 14-27]	21.6
KAGSFGAPSSPTSG [YPL179W 199-212]	124
KAIVWRLPKMPKIK [YFL040W 5-18]	515
KAPYLVQPNVPEKH [YHL002W 140-153]	131
KASSMPAPPPPPPP [YLR337C 391-404]	10500
KAVHLYFPILPHSG [YCR034W 255-268]	125
KEFRFIFPLQPLFI [YGL142C 392-405]	750
KELIYKQPSGPGLV [YER045C 32-45]	79.3
KELLLIPPGFPTKN [YCL010C 181-194]	123
KELNLTGPKVPEDI [YHR027C 344-357]	102
KELPFTGPSIPFEN [YPL216W 339-352]	339
KEQNWKHPLLPLLK [YDL202W 121-134]	321
KESKFGTPEKPLSD [YBL052C 444-457]	250
KEVDLTRPSAPSEP [YLR181C 258-271]	132

Binder	normalised SPOT signal, Boehringer light units (BLU); mean over the file's lines of this peptide
KFFKHLYPAIPILD [YLR256W 487-500]	217
KFLIHNEPIDPNDR [YIL009W 198-211]	122
KFPLMDKPSIPTLR [YNR011C 604-617]	432
KFRQMFKPLAPNTR [YLR072W 165-178]	1220
KFTDMLDPEKPNVI [YBR033W 385-398]	262
KFTDMQVPKGPVSP [YOR264W 96-109]	197
KFVIHNEPIDPSDK [YMR246W 198-211]	46.7
KLALHQYPNFPSEG [YML022W 11-24]	130
KLAPLNSPSLPTTN [YOL107W 236-249]	212
KLDPLGEPFDPNKH [YOR232W 171-184]	276
KLEDLNEPLSPWIS [YPL159C 152-165]	71.1
KLFVLLPPIDPKDG [YNL132W 563-576]	258
KLGRFTNPQQPRED [YPL075W 704-717]	227
KLKSLNLPQLPPPK [YDR266C 567-580]	675
KLNSLQIPHLPPSV [YHR105W 144-157]	350
KLPDLKLPPSPVPS [YML083C 113-126]	231
KLPKLNVPLNPKGK [YAR009C 933-946]	305
KLPQLPPPPPPPPP [YIL159W 764-777]	54100
